Measurements reported in patent US20130324474A1 (Eli Lilly, published 2013).

B1: CHO-Δ31-GDNF (SEQ ID NO: 8) (ligand)
chain: RGQRGKNRGCVLTAIHLNVTDLGLGYETKEELIFRYCSGSCDAAETTYDKILKNLSRNRRLVSDKVGQACCRPIAFDDDLSFLDDNLVYHILRKHSAKRCGCI
modifications: N-glycosylated at N49 (numbering of mature GDNF)
notes: Expressed in CHO cells; also called CHO-Δ31-GDNFv; WT CHO Δ31-GDNFv
B2: CHO-Δ31-N38Q-D95E-GDNF (SEQ ID NO: 9) (ligand)
chain: RGQRGKQRGCVLTAIHLNVTDLGLGYETKEELIFRYCSGSCDAAETTYDKILKNLSRNRRLVSEKVGQACCRPIAFDDDLSFLDDNLVYHILRKHSAKRCGCI
modifications: N-glycosylated at N49 (numbering of mature GDNF)
notes: Expressed in CHO cells; also called CHO-Δ31-N38Q-D95E-GDNFv; GDNF variant 2

Key:
human c-Ret = human c-Ret (human, UniProt P07949 29-1114, phosphorylation at Y1016 is the readout); assay: cell-based or functional assay
Chain of human c-Ret (P07949 29-1114): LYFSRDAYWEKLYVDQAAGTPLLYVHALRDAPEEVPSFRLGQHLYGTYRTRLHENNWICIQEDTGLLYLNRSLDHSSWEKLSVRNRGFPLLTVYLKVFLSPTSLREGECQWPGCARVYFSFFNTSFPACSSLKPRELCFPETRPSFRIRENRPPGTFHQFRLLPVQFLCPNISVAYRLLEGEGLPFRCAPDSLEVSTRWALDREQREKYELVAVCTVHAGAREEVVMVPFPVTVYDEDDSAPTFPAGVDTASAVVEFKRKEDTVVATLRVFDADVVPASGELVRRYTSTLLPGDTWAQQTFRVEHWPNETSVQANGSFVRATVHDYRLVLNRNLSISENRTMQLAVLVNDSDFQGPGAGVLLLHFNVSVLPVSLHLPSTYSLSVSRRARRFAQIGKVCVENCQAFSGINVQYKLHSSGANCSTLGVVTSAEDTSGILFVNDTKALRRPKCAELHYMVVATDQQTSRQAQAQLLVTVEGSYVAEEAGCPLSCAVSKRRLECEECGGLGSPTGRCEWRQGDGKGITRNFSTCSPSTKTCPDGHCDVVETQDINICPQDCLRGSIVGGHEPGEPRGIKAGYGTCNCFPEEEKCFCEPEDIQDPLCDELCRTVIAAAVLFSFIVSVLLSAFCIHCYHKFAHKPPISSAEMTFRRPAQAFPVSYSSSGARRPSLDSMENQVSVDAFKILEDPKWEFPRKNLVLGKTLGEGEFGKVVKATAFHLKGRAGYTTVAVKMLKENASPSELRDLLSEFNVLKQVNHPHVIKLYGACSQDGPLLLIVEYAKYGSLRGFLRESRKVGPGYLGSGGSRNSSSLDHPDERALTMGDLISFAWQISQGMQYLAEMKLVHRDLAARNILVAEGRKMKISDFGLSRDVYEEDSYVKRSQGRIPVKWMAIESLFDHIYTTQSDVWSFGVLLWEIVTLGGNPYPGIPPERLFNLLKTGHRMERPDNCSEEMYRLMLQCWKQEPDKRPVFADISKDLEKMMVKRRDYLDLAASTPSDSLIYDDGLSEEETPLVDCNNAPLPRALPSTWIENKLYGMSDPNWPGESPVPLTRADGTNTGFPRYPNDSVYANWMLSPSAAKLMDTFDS

[1] = target: T1, Recombinant Human GFRα-1/GDNF Rα-1 Fc Chimera (human, UniProt P56159 25-429); assay: ELISA, plate-bound human GFRα1-Fc; 4 C sample
T1 construct: Purchased Fc chimera; It was captured on protein A in Biacore and coated on the plate in ELISA; also called GFRα1-Fc; recombinant human GFRα1-Fc chimera, carrier-free; not shown: Fc part of a purchased Fc chimera
T1 sequence (looked up): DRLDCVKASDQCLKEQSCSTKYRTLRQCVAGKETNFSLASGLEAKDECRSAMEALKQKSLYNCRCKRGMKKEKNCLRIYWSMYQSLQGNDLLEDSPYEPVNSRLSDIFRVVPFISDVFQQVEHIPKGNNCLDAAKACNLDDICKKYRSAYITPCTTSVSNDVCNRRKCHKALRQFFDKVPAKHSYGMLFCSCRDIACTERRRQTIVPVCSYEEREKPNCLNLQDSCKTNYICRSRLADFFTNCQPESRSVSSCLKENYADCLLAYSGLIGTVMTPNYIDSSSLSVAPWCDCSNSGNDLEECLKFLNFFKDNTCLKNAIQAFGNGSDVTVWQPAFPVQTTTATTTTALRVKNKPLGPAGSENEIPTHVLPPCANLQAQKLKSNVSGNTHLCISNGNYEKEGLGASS
Method: GDNF wild type and variants are tested in an ELISA assay, in which binding of the GDNF proteins to the plate-bound receptor (GFRα1) is measured. A “no GDNF” condition and/or an “irrelevant protein” condition are used as negative controls.
Each well of a 96-well plate (Greiner 655081 Immunobind ELISA plates) is coated with 70 μl of human GFRα1 (recombinant human GFRα1-Fc chimera, carrier-free) at 1 μg/ml in carbonate buffer, pH 9.6. If an irrelevant receptor is coated, it is an irrelevant Fc chimera and is coated at the same concentration as GFRα1. The plates are sealed and incubated at 4° C. overnight. The wells are aspirated and washed twice with washing buffer (20 mM Tris (hydroxymethyl) aminomethane, pH 7.4, 0.15 M NaCl, 0.1% Tween-20), using an automatic plate washer. The plates are blocked with 200 μl blocking buffer per well (3% Carnation Instant milk in the above washing buffer) for at least 1 hour at room temperature. Plates are washed twice with washing buffer.
GDNF proteins are serially diluted into blocking buffer at an appropriate concentration range, typically beginning at 5 μg/ml and serially diluting 1:10. A no GDNF control is used, which consists of blocking buffer alone. 50 μl of each GDNF solution is added to the GFRα1 coated wells in triplicate. The plates are incubated for 1.5 hours at room temperature. The wells are then washed 3 times with washing buffer.

[2] = target: T2, Recombinant Rat GFRα-1/GDNF Rα-1 Fc Chimera (rat, UniProt Q62997 25-445); assay: SPR (Biacore 2000), rat GFRα1-Fc captured on protein A, GDNFv as analyte, 1:1 Langmuir, 25 C
T2 construct: Purchased Fc chimera; not shown: Fc part of a purchased Fc chimera
T2 sequence (looked up): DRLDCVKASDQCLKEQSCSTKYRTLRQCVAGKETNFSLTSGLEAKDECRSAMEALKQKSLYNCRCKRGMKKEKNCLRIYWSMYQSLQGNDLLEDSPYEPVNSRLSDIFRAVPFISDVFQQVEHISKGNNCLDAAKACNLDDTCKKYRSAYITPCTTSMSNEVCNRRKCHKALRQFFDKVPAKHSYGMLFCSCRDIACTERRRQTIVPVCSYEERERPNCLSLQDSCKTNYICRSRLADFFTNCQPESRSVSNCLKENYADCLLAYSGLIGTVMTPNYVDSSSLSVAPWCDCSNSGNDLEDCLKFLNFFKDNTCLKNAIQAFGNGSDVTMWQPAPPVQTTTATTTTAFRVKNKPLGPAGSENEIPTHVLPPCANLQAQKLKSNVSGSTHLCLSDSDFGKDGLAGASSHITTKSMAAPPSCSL
Method: (§1) A Biacore® 2000 instrument is used to measure the binding kinetics of GDNFv to human and rat GDNF family receptors (GFRα1 and GFRα2). Measurements are performed at 25° C. Samples are dissolved in HBS-EP buffer (150 mM sodium chloride, 3 mM EDTA, 0.005% (w/v) surfactant P-20, pH 7.4). Protein A, Staphylococcus aureus is immobilized on flow cells 1 to 4 of a CM4 sensor chip (GE Healthcare #BR-1005-39) at a level of ˜200 response units (RUs) using amine coupling chemistry to capture GFR Fc chimera (Recombinant Human GFRα-1/GDNF Rα-1 Fc Chimera; Recombinant Human GFRα-2/GDNF Rα-2 Fc Chimera; Recombinant Rat GFRα-1/GDNF Rα-1 Fc Chimera; Recombinant Mouse GFRα-2/GDNF Rα-2 Fc Chimera).
(§2) Binding is evaluated using multiple cycles. Each cycle consists of the following steps: 1) injection of about 10 μL of GFR at a concentration of ˜1.0 μg/mL and a flow rate of 10 μL/min., aiming at a capture of 120-150 RUs; 2) injection of 250 μL of GDNFv at a flow rate of 50 μL/min., in a final concentration rage between 10 nM and 0.04 nM followed by […]. for dissociation; and 3) regeneration using about 30 μL of 10 mM glycine hydrochloride, pH 1.5. Association and dissociation rates for each cycle are evaluated using a “1:1 (Langmuir) binding” model in the BIAevaluation software, version 4.1.

[3] = target: T3, Recombinant Human GFRα-2/GDNF Rα-2 Fc Chimera (human, UniProt O00451 22-441); assay: SPR (Biacore 2000), human GFRα2-Fc captured on protein A, GDNFv as analyte, 1:1 Langmuir, 25 C
T3 construct: Purchased Fc chimera; not shown: Fc part of a purchased Fc chimera
T3 sequence (looked up): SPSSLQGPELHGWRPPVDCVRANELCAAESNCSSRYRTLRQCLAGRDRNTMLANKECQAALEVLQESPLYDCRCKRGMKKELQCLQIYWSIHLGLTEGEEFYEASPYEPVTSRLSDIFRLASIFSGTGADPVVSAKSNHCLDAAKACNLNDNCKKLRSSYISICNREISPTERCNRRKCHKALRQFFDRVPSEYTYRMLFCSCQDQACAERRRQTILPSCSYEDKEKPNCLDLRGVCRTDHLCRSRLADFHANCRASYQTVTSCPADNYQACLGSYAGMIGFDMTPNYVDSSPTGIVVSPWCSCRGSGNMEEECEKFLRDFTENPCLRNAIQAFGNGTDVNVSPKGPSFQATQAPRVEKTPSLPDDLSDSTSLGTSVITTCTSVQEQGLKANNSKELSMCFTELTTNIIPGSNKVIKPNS
Method: as §1, §2

| Binder | c-Ret phosphorylation at Y1016, EC50 (human c-Ret) [µg/mL] | EC50 [1] [nM] | Kd [2] [nM] | koff [2] [s⁻¹] | kon [2] [M⁻¹ s⁻¹] | Kd [3] [nM] | koff [3] [s⁻¹] | kon [3] [M⁻¹ s⁻¹] |
| --- | --- | --- | --- | --- | --- | --- | --- | --- |
| B1 | 0.008 to 0.015 | 0.6 | 0.044 | 0.00024 | 5.6e+06 | 0.047 | 0.00025 | 5.3e+06 |
| B2 | 0.008 to 0.015 | 0.8 | 0.02 | 0.00019 | 9.4e+06 | 0.047 | 0.00035 | 7.6e+06 |
